The source of these data is article PMC8034617 (Nucleic Acids Research, 2021).

Ends that are not written are not given here.

For experiment [1], the target named is T1, His-RPS19 wt (human (cDNA from K562), UniProt P39019 1-145). Kind of experiment: pull-down.
The target of experiment [2] is T1, His-RPS19 wt. Kind of experiment: thermal shift assay.

For FPMRGRGGFDRMPPGRGGR (also: biotin, position not given here) [biotinylated HNRNPK peptide P1], the binding result with His-RPS19 wt [1] is “binds”.

In the case of FPMRGRGGFDRMPPGRGGR (also: biotinylated, position not given here) [biotinylated HNRNPK peptide P1m], in the experiment with His-RPS19 wt [1], the binding result is recorded as “binds”. As for FPMRGRGGFDRMPPGRGGR (also: asymmetrically dimethylated, places not given here) [HNRNPK-derived peptide P1m (asymmetrically dimethylated)], the binding result with His-RPS19 wt [2] is “binds”.
